# Test results published in IntAct's records for PubMed 21399639.
# Biological target: T1, ikkb_human IKBKB (UniProt O14920)
# T1 sequence: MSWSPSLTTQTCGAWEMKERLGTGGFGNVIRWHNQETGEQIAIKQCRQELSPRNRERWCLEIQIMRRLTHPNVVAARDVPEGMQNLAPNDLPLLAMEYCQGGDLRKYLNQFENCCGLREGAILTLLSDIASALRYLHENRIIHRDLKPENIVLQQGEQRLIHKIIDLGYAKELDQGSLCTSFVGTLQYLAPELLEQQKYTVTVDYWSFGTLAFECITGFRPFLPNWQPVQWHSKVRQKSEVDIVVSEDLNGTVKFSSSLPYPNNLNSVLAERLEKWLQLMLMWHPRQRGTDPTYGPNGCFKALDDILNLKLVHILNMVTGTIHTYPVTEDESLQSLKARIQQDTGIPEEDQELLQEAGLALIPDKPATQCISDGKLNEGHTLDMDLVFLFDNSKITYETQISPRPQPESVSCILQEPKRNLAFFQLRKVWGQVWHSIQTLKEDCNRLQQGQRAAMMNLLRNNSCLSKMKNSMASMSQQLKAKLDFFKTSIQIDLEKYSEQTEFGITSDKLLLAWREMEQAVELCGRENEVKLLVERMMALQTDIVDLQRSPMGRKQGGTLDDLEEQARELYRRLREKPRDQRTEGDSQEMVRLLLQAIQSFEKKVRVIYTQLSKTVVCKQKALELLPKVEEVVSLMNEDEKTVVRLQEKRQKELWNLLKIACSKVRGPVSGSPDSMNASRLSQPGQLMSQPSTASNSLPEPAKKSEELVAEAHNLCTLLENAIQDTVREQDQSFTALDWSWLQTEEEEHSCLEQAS
substance,measurement,value
Small ribosomal subunit protein uS3 (Homo sapiens) (from UniProt P23396) S209A,effect of a mutation on the interaction,disrupting interaction
